Measured values from the supplement of paper PMC9170038.

System: MS2 coat protein
Test: apparent KD of MS2 coat protein; designed switch direction (-1 OFF switch, 1 ON switch): -1; higher = weaker reporter binding
Summary of the method: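 Designed RNA switches with common flanks were transcribed on Illumina chips by stalled E. coli RNA polymerase and titrated with SNAP-549-labelled MS2 coat protein, from 0.7 or 1.5 nM doubling to 3 µM, in Tris-HCl pH 7.5 buffer with KCl, MgCl2, BSA, DTT, tRNA and Tween-20. Steps lasted 0.8–1.5 h (lowest) to 10–20 min (highest). Titrations ran without input, with 200 uM small-molecule ligand, or with an oligonucleotide input. Normalised cluster fluorescence was curve-fitted, and apparent KD is the per-design median over clusters.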

[1] = Eterna round: R95, input ligand: microRNA oligo, concentration not stated
[2] = Eterna round: R95, input ligand: FMN 200 uM
[3] = Eterna round: R95, input ligand: none
[4] = input ligand: microRNA oligo, concentration not stated

Sequence	apparent KD of MS2 coat protein [1]	apparent KD of MS2 coat protein (input ligand: FMN 200 uM)	apparent KD of MS2 coat protein (input ligand: none)	apparent KD of MS2 coat protein [2]	apparent KD of MS2 coat protein [3]	apparent KD of MS2 coat protein [4]
AAUCCACAUGAGGAUCACCCAUGUCAGGAUAUCGCGCGCGCGUUUUCGGUCUUGCGCGCGAGAAGGGACGGCUG (puzzle: Exclusion 1)	22.9 nM	–	–	–	–	–
AAUCCACAUGAGGAUCACCCAUGUCAGGAUAUCGUGUCGCGGGUUUCGGUCCGUGAUGCGAGAAGGGACGGCUG (puzzle: Exclusion 1)	27.4 nM	–	–	–	–	–
AAUCCACAUGAGGAUCACCCAUGUUAGGAUAUCGCGGAGAUCGACUGCGGAAGUUCUGCGAGAAGGAGCGUGAU [Eternabot (L2) Solution 18] (Eterna round: R97, puzzle: Exclusion 1)	–	51.6 nM	44 nM	–	–	–
AAUCCUGAAGUUAGGAUAUGAAGUAUCACUGCACUUCAGAAGGGACUUGAGGAUCACCCAAGUAGCCGUGAGGC [jl-bmx4.4.61 ViennaUCT mod] (Eterna round: R97, puzzle: Brourd's mod of Exclusion 4)	–	156 nM	35.6 nM	–	–	–
AAUGAGCUAGGAUAUACAUGAGGAUCACCCAUGUAAAAUAGGUCAUGGAUGAACCACUGUAGAAGGAGCAGGGC [Ateseszave] (puzzle: Exclusion 3)	146 nM	–	–	95.6 nM	105 nM	–
AAUGUCCAACGAGGAUAUGGGAAAGGAAGUGUACCAGAAGGCGUACGGACAUGAGGAUCACCCAUGUCGCGCGGCGCGAUGUGG [PowerStrip EXNG 1.14] (Eterna round: R96, puzzle: Exclusion NG 1)	–	80.9 nM	52.7 nM	–	–	46.4 nM
AAUGUUGUUGUGAGGAUAUCGUAGUUAUUUUGAAACGAGAAGGCACAUGAGGAUCACCCAUGUUUGUUGAUGGU [JR_BMOE4_Sub061] (puzzle: Brourd's mod of Exclusion 4)	20.8 nM	–	–	–	–	–
AAUGUUUGAUACCUUUAAUACAUGAGGAUCACCCAUGUUAUCGAGGAUAUGUAGAAGAGAUGAGAACAGAAGGCGAAGUAAGAG [JR_ExcNG3_Sub097] (Eterna round: R96, puzzle: Exclusion NG 3)	–	29.5 nM	15.1 nM	–	–	10.5 nM
AAUGUUUGAUUCCACUUAUACAUGAGGAUCACCCAUGUUAUCGAGGAUAUGCAUUAGAGUGUUUAGCAGAAGGCGAUGUAAUUG [JR_ExcNG3_Sub034] (Eterna round: R96, puzzle: Exclusion NG 3)	–	90.2 nM	13.8 nM	–	–	13.1 nM
AAUUAAGCAAGCAGAUCCCACAUGAGGAUCACCCAUGUGCUCGUCUUAUAAGGUACUGUGACGAUAGUCACGGUACC [Mat - Sensor, turn-off var - Eli Mod - D71] (Eterna round: R97, puzzle: Sensor, turn-off variant 1)	–	135 nM	140 nM	–	–	–
AAUUACAAGCAAAGAUCCUACAUGAGGAUCACCCAUGUGCUCGUCUUAUAAAGUACUAUCACGAAAGUGAUAGUACA [Mat - Sensor v3 - turn-off var 1 - Eli Mod - D76] (puzzle: Sensor v3, turn-off variant 1)	13.5 nM	–	–	222 nM	232 nM	–
AAUUAGUGAGGAUAUUCGAGCAGUGGCAGUAGCCAGUGCAUGAAGAAGGCACAUGAGGAUCACCCAUGUUAUAA [EX4 #60] (Eterna round: R97, puzzle: Exclusion 4)	–	53.4 nM	28.4 nM	–	–	–
AAUUAGUGUGUGAGGAUAUUGGUGGAAUGACUUAUUAAGAAGGCACAUGAGGAUCACCCAUGUGGGAAGUCACG [JR_BMEx4_Sub014] (Eterna round: R97, puzzle: Brourd's mod of Exclusion 4)	–	10.1 nM	12 nM	–	–	–
AAUUAUUAUUGAGGAUAUCGUAUUGAAACAAUACGAGAAGGCGGUAUAAACAUGAGGAUCACCCAUGUGAGCCUGAUGCUUAUG [Ex NG1 #99] (Eterna round: R96, puzzle: Exclusion NG 1)	–	–	–	–	–	27.5 nM
AAUUCCGUAGGAUAUGGGAACCGGGACAUGAGGAUCACCCAUGUGAAGGAUGUCCCAACACCAGAAGGACGCAGCA [EX5 A.14] (Eterna round: R97, puzzle: Exclusion 5)	–	47 nM	25.9 nM	–	–	–
AAUUUGCAAGCGAGAUCCCACAUGAGGAUCACCCAUGUGCUCGUCUUAUAAGGUACUGUGACAAUAGUCACGGUACC [Mat - Sensor, turn-off var - Eli Mod - D94] (Eterna round: R97, puzzle: Sensor, turn-off variant 1)	–	16.7 nM	20.8 nM	–	–	–
AAUUUUGGAGGAUAUACAUCCCAGGAUCCAGUAAUUAAGUUACAUGAGGAUCACCCAUGUAGAAGGUCAAGAGU [Eternabot (L1) Solution 75] (Eterna round: R97, puzzle: Exclusion 2)	–	53.3 nM	44.4 nM	–	–	–
ACAACAAGCUUUUUGUUCGUAGAACAUGAUGCUCUAGUCACAUGAGGAUCACCCAUGUCAACUAGAUAGAUAGUUGA [JR_SV3TOV2_Sub062] (puzzle: Sensor v3, turn-off variant 2)	95.7 nM	–	–	43 nM	44.1 nM	–
